Measurements taken from patent publication US20240124582A1 (published 2024).

B1: 25F7 (BMS-986016, Medarex/BMS), designated LAG-3 mAb A (antibody, V domains shown)
VH: QVQLQQWGAGLLKPSETLSLTCAVYGGSFSDYYWNWIRQPPGKGLEWIGEINHNGNTNSNPSLKSRVTLSLDTSKNQFSLKLRSVTAADTAVYYCAFGYSDYEYNWFDPWGQGTLVTVSS
VL: EIVLTQSPATLSLSPGERATLSCRASQSISSYLAWYQQKPGQAPRLLIYDASNRATGIPARFSGSGSGTDFTLTISSLEPEDFAVYYCQQRSNWPLTFGQGTNLEIK
notes: also called LAG-2 mAb A
B2: hLAG-3 mAb 1 (1.4), constant region not stated (antibody, V domains shown)
VH: QVQLVQSGAEVKKPGASVKVSCKASGYTFTNYGMNWVRQAPGQGLEWMGWINTYTGESTYADDFEGRFVFSMDTSASTAYLQISSLKAEDTAVYYCARESLYDYYSMDYWGQGTTVTVSS
VL: DIVMTQTPLSLSVTPGQPASISCKSSQSLLHSDAKTYLNWLLQKPGQPPERLIYLVSELDSGVPDRFSGSGSGTDFTLKISRVEAEDVGVYYCWQGTHFPYTFGGGTKVEIK
notes: also called hLAG-3 1 (1.4)
B3: hLAG-3 mAb 6 (1.1) (antibody, V domains shown)
VH: QVQLVQSGAEVKKPGASVKVSCKASGYTFTDYNMDWVRQAPGQGLEWMGDINPDNGVTIYNQKFEGRVTMTTDTSTSTAYMELRSLRSDDTAVYYCAREADYFYFDYWGQGTTLTVSS
VL: DIQMTQSPSSLSASVGDRVTITCRASQDVSSVVAWYQQKPGKAPKLLIYSASYRYTGVPSRFSGSGSGTDFTLTISSLQPEDFATYYCQQHYSTPWTFGGGTKLEIK
notes: also called hLAG-3 6 (1.1); humanized LAG-3 mAb 6

What follows are binders tested against T1, soluble LAG-3 fusion protein: extracelluar domain of cynomolgus monkey LAG-3 fused to murine IgG2a (cynomolgus monkey; murine) (assay: SPR (Biacore); cynomolgus LAG-3-murine IgG2a captured on Fab2 goat-anti mouse Fc, antibody in solution).
T1 construct: extracellular domain; also called cynomolgus LAG-3-murine IgG2a fusion protein
Procedure: In additional studies, the binding kinetics of the humanized antibodies hLAG-3 mAb 1 (1.4) and hLAG-3 mAb 6 (1.1), and a reference antibody LAG-3 mAb A to both human and cynomolgus monkey LAG-3 was investigated using Biacore analysis. In these studies, a soluble LAG-3 fusion protein (the extracelluar domain of human or cynomolgus monkey LAG-3 fused to murine IgG2a) was captured on a Fab2 goat-anti mouse Fc surface and incubated with the anti-LAG-3 antibody and the kinetics of binding was determined via Biacore analysis. The binding curves for LAG-3 mAb A, hLAG-3 mAb 1 (1.4) and hLAG-3 mAb 6 (1.1) binding to cynomolgus monkey LAG-3 are shown in FIGS. 7A-7C respectively, and the calculated ka, kd and KD are presented in Table 8. In a separate study, the binding of a bispecific Fc Region-containing diabody comprising hLAG-3 mAb 6 (1.1) to both human and cynomolgus monkey LAG-3 was investigated using Biacore analysis. In this study, the hLAG-3 mAb 6 (1.1) containing diabody was captured on a Fab2 goat-anti human Fc surface and incubated with soluble LAG-3 fusion protein (the extracelluar domain of human or cynomolgus monkey LAG-3 fused to a His tag) and the kinetics of binding was determined via Biacore analysis.
B1 showed a Kd of 458 nM.
B2 was tested, and the Kd was under 0.53 nM.
In the case of B3, the Kd is reported as 3.7 nM.
